Reference: patent US20090062512A1, “Comparative ligand mapping from MHC class I positive cells” (priority 2000, published 2009)

Experiments:
Assay type in all cases: cell-based
[1] = biological target: A*0201 class I MHC molecules in cells infected with the PR8 strain of influenza A virus (Homo sapiens, UniProt P04439, D140Y/D185E/D98H/E176V/E277Q/G131W/G231S/I119V/I121R/I166T/I218V/L300P/L318F/N151K/N90K/P208A/P217A/Q86G/Q94H/R138H/R169H/T345S)
[2] = biological target: B*0702 class I MHC molecules in cells infected with the PR8 strain of influenza A virus (Homo sapiens, UniProt P01889)
[3] = biological target: sHLA-A*0201 from MCF-7, MDA-MB-231, BT-20 and MCF10A (Homo sapiens, UniProt P04439, D140Y/D185E/D98H/E176V/E277Q/G131W/G231S/I119V/I121R/I166T/I218V/L300P/L318F/N151K/N90K/P208A/P217A/Q86G/Q94H/R138H/R169H/T345S); assay: MS comparative analysis of sHLA-A*0201 peptides, breast cancer cell lines vs nontumorigenic MCF10A; conditions: peptide epitope presented on sHLA-A*0201; for FOLD INCREASE BT-20 over MCF10A: BT-20 vs nontumorigenic MCF10A; for FOLD INCREASE MCF-7 over MCF10A: MCF-7 vs nontumorigenic MCF10A; for FOLD INCREASE MDA-MB-231 over MCF10A: MDA-MB-231 vs nontumorigenic MCF10A

Substance | Fold Increase [1] | further results
GLAEDSPKM | 2 | 
NLPLSNLAI |  | Fold Increase [2]: 4.3
LPKPPGRGV |  | Fold Increase [2]: 1.9
AARPATSTL |  | Fold Increase [2]: 5.1
RPSGKGIVEF |  | Fold Increase [2]: 13.7
TLWDIQKDLK | 1.64 | 
KLIGDPNLEFV | 2.82 | 
APKIGPLGL |  | Fold Increase [2]: 1.54
FMFDEKLVTV | 1.99 | 
GMYVFLHAV | 2.73 | 
GLGPTFKL | unique | 
ALVSSLHLL | 1.51 | 
SLLDIIEKV | 2.56 | 
ILYDIPDIRL | 5.99 | 
KLLEGEESRISL | 2.1 | 
ALNEKLVNL | 1.52 | 
GVIAEILRGV | 1.56 | 
VFLKPWI |  | Fold Increase [2]: 1.62
GIWGFIKGV | 6.1 | 
KLFDDDETGKISF | Unique | 
SLFEGTWYL | 2.36 | 
KMLEKLPEL | 2.14 | 
GLIENDALL | 1.71 | 
SPRSGLIRV |  | Fold Increase [2]: 1.53

Substance | Fold Increase [1] | further results
LPRGSSPSVL |  | Fold Increase [2]: 1.57
YAYDGKDYI | Unique | 
GVLDNIQAV | Unique | 
SMPDFDLHL | 1.83 | 
YAYDGKDYIA | 1.6 | 
ILCPMIFNL | 2.51 | 
SPQEDKEVI |  | Fold Increase [2]: 4.19
LLLDVPTAAVQA | 6.24 | 
IMLEALERV | 1.64 | 
TLLEDGTFKV | 1.67 | 
TLIDLPGITKV | 6.48 | 
DPMKARVVL |  | Fold Increase [2]: 1.87
ALDEKLLNI | 1.61 | 
ALWEAKEGGLL | 1.54 | 
APNRPPAAL |  | Fold Increase [2]: 1.5
LPSSGRSSL |  | Fold Increase [2]: 2
YPKRPLLGL |  | Fold Increase [2]: 1.61
GIVEGLMTTV | 3.1 | 
SMLEDVQRA | 2.4 | 
YLDIKGLLDV | 2.44 | 
AVSDGVIKV | 8.98 | 
VLLSDSNLHDA | 10.95 | 
KIFEMGPVFTL | 6.45 | 
ALDKATVLL | 2.13 | 

Substance | Fold Increase [1] | further results
VLFDVTGQVRL | 2.48 | 
KMWDPHNDPNA | Unique | 
LMTTVHAITAT | Unique | 
QLLGSAHEV | 4.98 | 
NPASKVIAL |  | Fold Increase [2]: 1.64
SLAKIYTEA | 5.38 | 
KLLDFGSLSNL | 3.57 | 
AVGKVIPEL | 12.46 | 
APRPPPKM |  | Fold Increase [2]: 2.9
IPSIQSRGL |  | Fold Increase [2]: 1.6
SLYEMVSRV | 1.87 | 
SLDQPTQTV | 9.84 | 
KLFPDTPLAL | Unique | 
FLPSYIIDV | 2.57 | 
ALMDEVVKA | 2.59 | 
KMYEEFLSKV | 1.8 | 
ALLAGSEYLKL | 1.51 | 
ARPATSL |  | Fold Increase [2]: 2.2
SPGIPNPGAPL |  | Fold Increase [2]: 1.84
KIAPNTPQL | 2.63 | 
AIVDKVPSV | 1.88 | 
RVPPPPPIA | 6.54 | 
ALLSAVTRL | Unique | 
VINDVRDIFL | 1.71 | 

Substance | Fold Increase [1] | further results
GPYPYTL |  | Fold Increase [2]: 2.01
APRPVAVAV |  | Fold Increase [2]: 1.5
RPKANSA |  | Fold Increase [2]: 1.8
VVQDGIVKA | Unique | 
RLTPKLMEV | 2.2 | 
KVPEWVDTV | 5.94 | 
SPKIRRL |  | Fold Increase [2]: 1.63
KILDLETQL |  | FOLD INCREASE BT-20 over MCF10A [3]: 7; FOLD INCREASE MCF-7 over MCF10A [3]: 9; FOLD INCREASE MDA-MB-231 over MCF10A [3]: 1.4
VLEDPVHAV | 3.91 | 
GPPGTGKTAL |  | Fold Increase [2]: 1.5
RIVPRFSEL |  | Fold Increase [2]: 1.54
ILSGVVTKM | 1.74 | 
TLWGIQKEL | 3.27 | 
TLAEVERLKGL | Unique | 
LLDVPTAAV | 5.18 | 
ILMEHIHKL | 5.46 | 
SPGPPTRKL |  | Fold Increase [2]: 1.9
ILDKKVEKV | Unique | 
RPAGKGSITI |  | Fold Increase [2]: 1.8
SLFGGSVKL |  | FOLD INCREASE BT-20 over MCF10A [3]: 1.3; FOLD INCREASE MCF-7 over MCF10A [3]: 5; FOLD INCREASE MDA-MB-231 over MCF10A [3]: 2.6
KIIDEDGLLNL | 1.56 | 
LLDVVHPAA | 3.43 | 
RPTGGVGAV |  | Fold Increase [2]: 2.7
